For test [1], the target named is human amylin AMY1 receptor (hCTR + hRAMP1) (human, UniProt P30988 25-474). Briefly: cell-based or functional assay.
Test [2] deals with human adrenomedullin receptor 1 (hCRLR + hRAMP2) (human, UniProt O60895 43-175). The test can be described thus: cell-based or functional assay.
The target of a further test is rat CGRP receptor (rat, UniProt Q63118 24-464; Q9JJ74 27-148). Briefly: cell-based or functional assay.
Test [3] concerns the target T1, human CGRP receptor (CRLR + RAMP1) (human, UniProt Q16602 23-461; O60894 27-148). The test can be described thus: cell-based or functional assay.
The target of test [4] is T2, cynomolgus CGRP receptor (cynoCRLR + cynoRAMP1) (cynomolgus monkey).
T2 chain 1: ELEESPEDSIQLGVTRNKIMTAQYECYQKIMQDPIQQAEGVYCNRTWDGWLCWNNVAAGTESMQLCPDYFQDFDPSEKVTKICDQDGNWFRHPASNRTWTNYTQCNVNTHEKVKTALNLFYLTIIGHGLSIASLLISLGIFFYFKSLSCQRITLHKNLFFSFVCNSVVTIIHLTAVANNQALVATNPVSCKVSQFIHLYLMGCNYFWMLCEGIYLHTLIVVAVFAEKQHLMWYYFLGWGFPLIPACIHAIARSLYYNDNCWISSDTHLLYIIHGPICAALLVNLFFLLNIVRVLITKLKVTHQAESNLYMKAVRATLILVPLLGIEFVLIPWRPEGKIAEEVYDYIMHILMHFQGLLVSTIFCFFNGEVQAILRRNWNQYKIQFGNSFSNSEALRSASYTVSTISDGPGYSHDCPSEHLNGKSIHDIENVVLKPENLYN
T2 chain 2: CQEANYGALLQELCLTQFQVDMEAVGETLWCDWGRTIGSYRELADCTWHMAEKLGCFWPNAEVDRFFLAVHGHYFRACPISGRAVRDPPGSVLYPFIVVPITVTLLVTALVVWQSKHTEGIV
Briefly: cell-based or functional assay.

The target of test [5] is human adrenomedullin receptor 2 (hCRLR + hRAMP3) (human, UniProt O60896 24-148). Briefly: cell-based or functional assay.
For test [6], the target named is T1, human CGRP receptor (CRLR + RAMP1). The test can be described thus: 125I-CGRP competition binding, HTB-10 cell membranes. How it is done: (§1) The plates were incubated at room temperature for 2 hours with shaking at 60 rpm, and then the contents of each well were filtered over 0.5% polyethyleneimine (PEI)-treated (for at least one hour) GF/C 96-well filter plates. The GF/C filter plates were washed six times with ice-cold 50 mM Tris, pH 7.5 and dried in an oven at 55° C. for 1 hour. The bottoms of the GF/C plates were then sealed. 40 μl Microscint™ 20 was added to each well, the tops of the GF/C plates were sealed with TopSeal™-A (a press-on adhesive sealing film), and the GF/C plates were counted with TopCount NXT (Packard). The data were analyzed using Prizm (GraphPad Software Inc.)

For test [7] the target is unchanged. The test can be described thus: FACS on AM-1 CHO huCGRP R cells, KinExA n-curve analysis. How it is done: Briefly, AM-1 CHO huCGRP R-expressing cells, prepared as described above, were plated in 96-well plates at densities of 16,000 or 160,000 cells per well in DMEM medium containing 10% FBS, NEAA, PS, L Glut, NaPyr and 0.05% sodium azide. […] After an overnight incubation at 4° C. in a total volume of 120 μl, on a plate shaker, the cells were washed 2× with PBS+2% FBS, centrifuging and discarding supernatant each time. 100 μl/well of G anti-Hu Fc Cy5 (5 μg/mL; Jackson ImmunoResearch Laboratories Inc., West Grove, Pa., USA) containing 7AAD (5 μl/well) was then added and incubated at 4° C. for 40 min. The cells were washed 2× with PBS+2% FBS, centrifuging and discarding the supernatant each time. 100 μl PBS+2% FBS buffer was then added and analyzed by FACS to determined the binding geomean. The Kd was calculated using KinExA software by taking the negative geomean at each antibody concentration as the amount of free Ab present Rathanaswami, et al., Biochemical and Biophysical Research Communications 334 (2005) 1004-1013.

For test [8] the target is unchanged. The test can be described thus: cell-based or functional assay. This is another data set of the same source.
For test [9] the target is unchanged. Briefly: radioligand competition: 125I-CGRP binding to human CGRP receptor on HTB-10 cell membranes, antibody as competitor. On the procedure:
as §1

This is an account of results in US20150376286A1 (Amgen, published 2015).

B1: 5F5 (antibody, human IgG2, kappa, V domains shown)
VH: QVQLVESGGGVVQPGRSLRLSCAASGFTFSSYGMHWVRQAPGKGLEWVAVISYDGSHESYADSVKGRFTISRDISKNTLYLQMNSLRAEDTAVYFCARERKRVTMSTLYYYFYYGMDVWGQGTTVTVSS
VL: DIILTQTPLSLSVTPGQPASISCKSSQSLLHSDGKTYLYWYLQKPGQPPQLLIYEVSNRFSGEPDRFSGSGSGTDFTLKISRVEAEDVGTYYCMQSFPLPLTFGGGTKVEIKR
notes: also called 05F5; 05F5.1
As for B1, the “cAMP assay IC50” value was over 1000 nM in [1]; over 1000 nM in test [2]; over 1000 nM with rat CGRP receptor; 4.79 nM in [3]; 4.78 nM in [4]; over 1000 nM in test [5]. Moreover, the Ki in test [6] came to 0.147 nM.

B2: 3C8 (antibody, human IgG2, kappa, V domains shown)
VH: QVQLVESGGGVVQPGRSLRLSCAASGFTFSSYGMHWVRQAPGKGLEWVAVISYDGSHESYADSVKGRFTISRDISKNTLYLQMNSLRAEDTAVYFCARERKRVTMSTLYYYFYYGMDVWGQGTTVTVSS
VL: DIILAQTPLSLSVTPGQPASISCKSSQSLLHSAGKTYLYWYLQKPGQPPQLLIYEVSNRFSGVPDRFSGSGSGTDFTLKISRVEAEDVGIYYCMQSFPLPLTFGGGTKVEIKR
On to B2, for which the “cAMP assay IC50” value in test [1] was over 1000 nM; in [2], over 1000 nM; in the test with rat CGRP receptor it was over 1000 nM; in test [4] it was 5.32 nM; in test [5], over 1000 nM.

B3: 12E8 (antibody, human IgG2, kappa, V domains shown)
VH: QVQLVESGGGVVQPGRSLRLSCAASGFTFSSYGMHWVRQAPGKGLEWVAVISYDGSHESYADSVKGRFTISRDISKNTLYLQMNSLRAEDTAVYFCARERKRVTMSTLYYYFYYGMDVWGQGTTVTVSS
VL: DITLTQTPLSLSVSPGQPASISCKSSQSLLHSDGRNYLYWYLQKPGQPPQLLIYEVSNRFSGLPDRFSGSGSGTDFTLKISRVEAEDVGIYYCMQSFPLPLTFGGGTKVEIKR
notes: also called 12E8.2
Consider B3, for which the “cAMP assay IC50” value is over 1000 nM in test [1]; over 1000 nM in test [2]; over 1000 nM in the test with rat CGRP receptor; 2.93 nM in test [3]; 4.13 nM in test [4]; over 1000 nM in test [5]. Moreover, the Kd in [7] came to 2.3 nM. Also, the Ki in [6] was 0.097 nM.

B4: 10E4 (antibody, human IgG2, lambda, V domains shown)
VH: QVQLVQSGAEVKKPGASVKVSCKASGYTFTDYYMYWVRQAPGQGLEWMGWISPNSGGTNYAQKFQGRVTMTRDTSISTAYMELSRLRSDDTAVYYCVRGGYSGYAGLYSHYYGMDVWGQGTTVTVSS
VL: not shown
In the case of B4, the “cAMP assay IC50” value in test [1] is over 1000 nM; in test [2], over 1000 nM; with rat CGRP receptor, over 1000 nM; in [4], 3.23 nM; in test [5], over 1000 nM.

B5: 1E11 (antibody, human IgG2, lambda, V domains shown)
VH: QVQLVESGGGVVQPGRSLRLSCAASGFTFSSFGMHWVRQAPGKGLEWVAVISFDGSIKYSVDSVKGRFTISRDNSKNTLFLQMNSLRAEDTAVYYCARDRLNYYDSSGYYHYKYYGMAVWGQGTTVTVSS
VL: QSVLTQPPSVSEAPGQKVTISCSGSSSNIGNNYVSWYQQLPGTAPKLLIYDNNKRPSGIPDRFSGSKSGTSATLGITGLQTGDEADYYCGTWDSRLSAVVFGGGTKLTVLG
notes: also called 01E11; 01E11.2
For B5, the “cAMP assay IC50” value is over 1000 nM in test [1]; over 1000 nM in test [2]; over 1000 nM with rat CGRP receptor; 1.77 nM in [3]; 2.79 nM in test [4]; over 1000 nM in test [5]. For the same molecule, the “IC50 (read off the curve)” value is about 1 nM in test [8] and about 0.03 nM in test [9]. Further, the Ki in [6] stood at 0.03 nM.

B6: 9D4 (antibody, human IgG2, lambda, V domains shown)
VH: QVQLVESGGGVVQPGRSLRLSCAASGFTFSSFGMHWVRQAPGKGLEWVAVISFDGSIKYSVDSVKGRFTISRDNSKNTLFLQMNSLRAEDTAVYYCARDRLNYYDSSGYYHYKYYGMAVWGQGTTVTVSS
VL: QSVLTQPPSVSAAPGQKVTISCSGSSSNIGNNYVSWYQQFPGTAPKLLIYDNNKRPSGIPDRFSGSKSGTSATLGITGLQTGDEADYYCGTWDSRLSAVVFGGGTKLTVLG
notes: also called 09D4; 09D4.2
As to B6, the “cAMP assay IC50” value in test [1] is over 1000 nM; in test [2] it was over 1000 nM; with rat CGRP receptor it was over 1000 nM; in [3] it was 1.4 nM; in test [4], 2.46 nM; in test [5], over 1000 nM. Also, in test [7], the Kd was 2.5 nM. In addition, the Ki in test [6] was 0.023 nM.

B7: 13H2 (antibody, human IgG2, kappa, V domains shown)
VH: EVQLVESGGGLVKPGGSLRLSCAASGYTFSTYSMNWVRQAPGKGLEWVSSISSSSSYRYYADSVKGRFTISRDNAKNSLYLQMSSLRAEDTAVYYCAREGVSGSSPYSISWYDYYYGMDVWGQGTTVTVSS
VL: DIQMTQSPSSLSASVGDRVTITCRASQGIRKDLGWYQQKPGKAPKRLIYGASSLQSGVPSRFSGSGSGTEFTLTISSLQPEDFATYYCLQYNSFPWTFGQGTKVEIKR
notes: also called 13H2.2
For B7, the “cAMP assay IC50” value in test [1] was over 1000 nM; in test [2] it was over 1000 nM; with rat CGRP receptor it was over 1000 nM; in test [3], 1.95 nM; in test [4], 8.41 nM; in [5] it was over 1000 nM. The “IC50 (read off the curve)” value is about 6 nM in test [8] and about 0.1 nM in test [9]. Moreover, the Ki in test [6] came to 0.033 nM.

B8: 2E7 (antibody, human IgG2, kappa, V domains shown)
VH: EVQLLESGGGLVQPGESLRLSCAASGFTFSSYAMSWVRQAPGKGLEWVSAISGSGGRTYYADSVKGRFTISRDNSKNTLYLQMNSLRAEDTAVYYCAKDQREVGPYSSGWYDYYYGMDVWGQGTTVTVSS
VL: DIQMTQSPSSLSASVGDRVTITCRASQGIRNDLGWFQQKPGKAPKRLIYAASSLQSGVPSRFSGSGSGTEFTLTISSLQPEDLATYYCLQYNIYPWTFGQGTKVEIKR
notes: also called 02E7; 02E7.2
Take B8: the “cAMP assay IC50” value in [1] was over 1000 nM; in test [2], over 1000 nM; with rat CGRP receptor it was over 1000 nM; in [3], 6.3 nM; in test [4], 5.51 nM; in test [5], over 1000 nM. Also, the Kd in [7] is 1.5 nM. In addition, in test [6], the Ki came to 0.117 nM.

B9: 4H6 (antibody, human IgG2, kappa, V domains shown)
VH: EVQLVESGGGLVKPGRSLRLSCTASGFTFGDYAMSWFRQAPGKGLEWIGFIRSRAYGGTPEYAASVKGRFTISRDDSKTIAYLQMNSLKTEDTAVYFCARGRGIAARWDYWGQGTLVTVSS
VL: not shown
notes: also called 04H6; 04H6.1
For the molecule B9, the “cAMP assay IC50” value was over 1000 nM in [1]; over 1000 nM in [2]; over 1000 nM with rat CGRP receptor; 3.78 nM in test [3]; 5.59 nM in [4]; over 1000 nM in [5]. Besides, the equilibrium dissociation constant (Kd) in [7] was found to be 2.4 nM. Also, the Ki in test [6] came out at 0.052 nM.
